Measured values reported in the supplement of paper PMC9170038.

Test system: MS2 coat protein
Experiment: apparent KD of MS2 coat protein; designed switch direction (-1 OFF switch, 1 ON switch): -1; higher = weaker reporter binding
Summary of the method: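 Designed RNA switches with common flanks were made on Illumina chips by stalled E. coli RNA polymerase. Titration with SNAP-549-labelled MS2 coat protein doubled from 0.7 or 1.5 nM up to 3 µM. Apparent KD is each design's median over clusters after curve-fitting normalised fluorescence.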

[1] = input ligand: microRNA oligo, concentration not stated
[2] = Eterna round: R95, input ligand: FMN 200 uM
[3] = Eterna round: R95, input ligand: microRNA oligo, concentration not stated
[4] = Eterna round: R95, input ligand: none

With “UUGUUUUCCGCAGGAUAUGCUCCUCCAUUACUAGCAGAAGGGCGUUGAACAUGAGGAUCACCCAUGUAUGUAAUUGCUUAUUGC [JR_ExcNG1_Sub073] (Eterna round: R96, puzzle: Exclusion NG 1)” the “apparent KD of MS2 coat protein” value (input ligand: FMN 200 uM) was 0.0197 µM, the “apparent KD of MS2 coat protein” value [1] was 0.0148 µM and the “apparent KD of MS2 coat protein” value (input ligand: none) was 0.0189 µM.
“GGGCUGUCAGGAUAUACAUGAGGAUCACCCAUGUCGAGCUAUGAUAGGGCAAGAGUAGGUAGAAGGGACGAGAG [JR_Exclu3_Sub043] (puzzle: Exclusion 3)” was tested, and the “apparent KD of MS2 coat protein” value [2] was 0.0437 µM, the “apparent KD of MS2 coat protein” value [3] was 0.0326 µM and the “apparent KD of MS2 coat protein” value [4] was 0.0327 µM.
With “AGCUGUGGCCGAGGAUAUACAUGAGGAUCACCCAUGUUACAUAAUUCGACAUGAGAAUACGAACCGUAGAAGGCGGUCUCAGCA [Eli eng2 - 002] (Eterna round: R96, puzzle: Exclusion NG 2)” the “apparent KD of MS2 coat protein” value (input ligand: FMN 200 uM) was 0.127 µM, the “apparent KD of MS2 coat protein” value [1] was 0.0378 µM and the “apparent KD of MS2 coat protein” value (input ligand: none) was 0.0661 µM.
For “CUUCUGUGAGGAUAUUAGUAGUAAAUGAAUAAAAUUAUUACUGAGAAGGCACAUGAGGAUCACCCAUGUUCCUC [Mat - Exclusion 4 - Eli Mod - D12] (Eterna round: R97, puzzle: Exclusion 4)”, the “apparent KD of MS2 coat protein” value (input ligand: FMN 200 uM) was 0.386 µM and the “apparent KD of MS2 coat protein” value (input ligand: none) was 0.0363 µM.
In the case of “AUAAAGAAUGUUAGGAUAUUGGUGAAUAGGCUGACUAAGAAGGAACAUGAGGAUCACCCAUGUAACAUGGAAAA [Tiinzaesqu] (puzzle: Brourd's mod of Exclusion 4)”, the “apparent KD of MS2 coat protein” value [2] is reported as 0.0688 µM, the “apparent KD of MS2 coat protein” value [3] is reported as 0.0245 µM and the “apparent KD of MS2 coat protein” value [4] is reported as 0.0336 µM.
For “AUUGUUUAUGUAGGAUAUGCCUGGCGUGCCUUCGCAGAAGGACAUGAGGAUCACCCAUGUAUUGCGGUCUGCGUUCAGAUCGCC [salish99_ExNG1_r4_027] (Eterna round: R96, puzzle: Exclusion NG 1)”, the “apparent KD of MS2 coat protein” value (input ligand: FMN 200 uM) was 0.0213 µM, the “apparent KD of MS2 coat protein” value [1] was 0.015 µM and the “apparent KD of MS2 coat protein” value (input ligand: none) was 0.0193 µM.
In the case of “GCAGCAUAGUUUACUAACUGUUACAUGAGGAUCACCCAUGUUUAGGAUAUGGUCUGGAUUACAGGCCAGAAGGGAACAAGCUGC [Eli exng3 - 032] (Eterna round: R96, puzzle: Exclusion NG 3)”, the “apparent KD of MS2 coat protein” value [1] is reported as 0.0103 µM.
In the case of “CACCGUUACACAGGAUAUGUUACAUGAGGAUCACCCAUGUAAUAAAUGAGAAUUUCGAAUGUAAUACAGAAGGGUGGAAUCGGC [Ostricism 73 - Jieux - Exclusion NG 2] (Eterna round: R96, puzzle: Exclusion NG 2)”, the “apparent KD of MS2 coat protein” value (input ligand: FMN 200 uM) is reported as 0.0347 µM, the “apparent KD of MS2 coat protein” value [1] is reported as 0.0279 µM and the “apparent KD of MS2 coat protein” value (input ligand: none) is reported as 0.0284 µM.
For “GGUCAGACGGUAGGAUAUCCAUAUCGAGUGACCCUUUCAUAACAUGAGGAUCACCCAUGUCGGUGGGAGAAGGGCUGUACGGCG [salish99_ExNG02_R04_002] (Eterna round: R96, puzzle: Exclusion NG 2)”, the “apparent KD of MS2 coat protein” value (input ligand: FMN 200 uM) was 0.0458 µM, the “apparent KD of MS2 coat protein” value [1] was 0.0226 µM and the “apparent KD of MS2 coat protein” value (input ligand: none) was 0.0356 µM.
“UUUAGUUCAGGAUAUGUAGAUUUUAACAUGAGGAUCACCCAUGUAGAUCCUGAAUUAACUACAGAAGGGAACAUUG [Exclusion 5: 2:b] (puzzle: Exclusion 5)” was tested, and the “apparent KD of MS2 coat protein” value [2] was 0.0501 µM, the “apparent KD of MS2 coat protein” value [3] was 0.0182 µM and the “apparent KD of MS2 coat protein” value [4] was 0.0165 µM.
For “UUGUUGUAUGUAGGAUAUGCAUAUUGUUAUUAUGCAGAAGGACAUGAGGAUCACCCAUGUAUGUUAUUAUUAUGUGUUAUGUGU [Title] (Eterna round: R96, puzzle: Exclusion NG 1)”, the “apparent KD of MS2 coat protein” value [1] was 0.0303 µM.
For “AAAAAAUUGAGAGGAUAUGGUGCCGAAACGGUGCUAGAAGGUUUUAUAAAAAAACAUGAGGAUCACCCAUGUUCAUGUAAAAAA [AK ExNG1-1] (Eterna round: R96, puzzle: Exclusion NG 1)”, the “apparent KD of MS2 coat protein” value (input ligand: FMN 200 uM) was 0.0172 µM, the “apparent KD of MS2 coat protein” value [1] was 0.0161 µM and the “apparent KD of MS2 coat protein” value (input ligand: none) was 0.018 µM.
“CAGUACUGAGGAUAUACAUGAGGAUCACCCAUGUGCUCGAAGUAGGAUACUACUAUUAGUAGAAGGCAGUACUG [Fiskers Ex 3 828 mod 22] (puzzle: Exclusion 3)” was tested, and the “apparent KD of MS2 coat protein” value [3] was 0.0159 µM.
With “CCUCGACGGUAGGAUAUCGUCAAACUAUUGUGAUGAGAAGGACUGACAUGAGGAUCACCCAUGUUAACGUGAUG [Exclusion 6 - 7:a] (puzzle: Exclusion 6)” the “apparent KD of MS2 coat protein” value [3] was 0.0148 µM.
In the case of “CUUUUCAGAGGAUAUAGAUAUUAUCACAUGAGGAUCACCCAUGUAACCCUACAUUCACCACUAGAAGGCUGUUAAG [lam1] (Eterna round: R97, puzzle: Exclusion 5)”, the “apparent KD of MS2 coat protein” value (input ligand: FMN 200 uM) is reported as 0.0271 µM and the “apparent KD of MS2 coat protein” value (input ligand: none) is reported as 0.0485 µM.
For “GAUUAACAUGAGGAUCACCCAUGUGAGGAUAUUGACUUGCUCACUUUCCCAUUUGAGUCGAGAAGGCGCAUCUG [1986#22] (Eterna round: R97, puzzle: Exclusion 1)”, the “apparent KD of MS2 coat protein” value (input ligand: FMN 200 uM) was 0.0688 µM and the “apparent KD of MS2 coat protein” value (input ligand: none) was 0.039 µM.
In the case of “CCUCUACAUGAGGAUCACCCAUGUGAGGAUAUCUCGGAGCAGCCUAUUAAGGCGCUCCAGAGAAGGCACGUGUA [Dizasoorce] (puzzle: Exclusion 1)”, the “apparent KD of MS2 coat protein” value [3] is reported as 0.0179 µM.
With “UUAUUAUGUGUAGGAUAUGCAUAUUAUUAUUAUGCAGAAGGACAUGAGGAUCACCCAUGUAUAUUAUUAUUAUAUAUUAUAUAU [Title] (Eterna round: R96, puzzle: Exclusion NG 1)” the “apparent KD of MS2 coat protein” value [1] was 0.0251 µM.
For “CUGUGUAGACAGGAUAUGCUGUACAAAAGUACAGCAGAAGGGUCUACAUGAGGAUCACCCAUGUUUACUUCAUG [)mei Ex6 B23] (Eterna round: R97, puzzle: Exclusion 6)”, the “apparent KD of MS2 coat protein” value (input ligand: FMN 200 uM) was 0.0204 µM and the “apparent KD of MS2 coat protein” value (input ligand: none) was 0.0984 µM.
For “AAGGGUGCUUUUAGAACGACAUGAGGAUCACCCAUGUAGACUGAGGAUAUCUACUCCUAAGGACCGGAGAAGGCAGUGUAAUGC [Ex NG3 #64] (Eterna round: R96, puzzle: Exclusion NG 3)”, the “apparent KD of MS2 coat protein” value (input ligand: FMN 200 uM) was 0.0578 µM, the “apparent KD of MS2 coat protein” value [1] was 0.075 µM and the “apparent KD of MS2 coat protein” value (input ligand: none) was 0.0559 µM.
With “GCAAAAUAUCAGGAUAUGACUUUUUGCGUUAAGUCAGAAGGGAUAACAUGAGGAUCACCCAUGUGAUAUAGUGU [JR_Ex6_Sub031] (Eterna round: R97, puzzle: Exclusion 6)” the “apparent KD of MS2 coat protein” value (input ligand: FMN 200 uM) was 0.261 µM and the “apparent KD of MS2 coat protein” value (input ligand: none) was 0.177 µM.
In the case of “GUAAUUCGAGGAUAUGCCCAUCUAAACAUGAGGAUCACCCAUGUGCGCAUGUUUACCAUCGCAGAAGGCGAGCUGC [Eternabot (L1) Solution 31] (Eterna round: R97, puzzle: Exclusion 5)”, the “apparent KD of MS2 coat protein” value (input ligand: FMN 200 uM) is reported as 0.0393 µM and the “apparent KD of MS2 coat protein” value (input ligand: none) is reported as 0.0255 µM.
With “AUCGUAGCAGGAUAUCCGGAGAUUGACAUGAGGAUCACCCAUGUGGUCAUGCCAGCCAAUGGAGAAGGGUUUCGGU [Eternabot (L1) Solution 49] (Eterna round: R97, puzzle: Exclusion 5)” the “apparent KD of MS2 coat protein” value (input ligand: FMN 200 uM) was 0.618 µM and the “apparent KD of MS2 coat protein” value (input ligand: none) was 0.637 µM.
For “AAGAUGCGCGCAGGAUAUGGAGAGAAAGAAAGACCAGAAGGGCGGGUCACACAACAUGAGGAUCACCCAUGUGUGUGUUGCGAA [snuffleupagus] (Eterna round: R96, puzzle: Exclusion NG 1)”, the “apparent KD of MS2 coat protein” value (input ligand: FMN 200 uM) was 0.00929 µM, the “apparent KD of MS2 coat protein” value [1] was 0.00954 µM and the “apparent KD of MS2 coat protein” value (input ligand: none) was 0.0122 µM.
In the case of “ACAAGCUUUUUGUUCGUCUUAUAAUAAUAAAUAAAGAUAACAUGAGGAUCACCCAUGUAACAAAGACGGCCUCAUGU [Sesor Array 19 - Jieux - Sensor v3, turn-off variant 2] (puzzle: Sensor v3, turn-off variant 2)”, the “apparent KD of MS2 coat protein” value [2] is reported as 0.166 µM, the “apparent KD of MS2 coat protein” value [3] is reported as 0.0117 µM and the “apparent KD of MS2 coat protein” value [4] is reported as 0.112 µM.
